Results: US20240000837A1

Biological target: HLA-C1 expressed in the tumor cell membrane (HLA class I on Panc0203 / HPAC tumor cells) (human)
Assay: flow cytometry on Panc02.03 cells, PE-conjugated anti-Fc secondary staining

fusion protein encompassing the extracellular domain of KIR2DL2 linked to the Fc portion of an antibody (KIR2DL2-Fc) (from UniProt P43627 22-245) (Fc fusion)
percent of cells bound: > 60%
